Data published in publication PMC11267847.

Experiments:
Assay in all cases: EMSA
Conditions in all cases: EMSA kit (Biyuntian): 50 ng biotin-labeled DNA, 2 uL binding buffer, 2 ug protein; competitors 5 ug unlabeled DNA; buffer composition, pH and temperature not …
[1] = molecular target: T1, Hot1p (Pichia pastoris (Komagataella phaffii), strain SMD1168?) (UniProt C4QW90)
T1 sequence: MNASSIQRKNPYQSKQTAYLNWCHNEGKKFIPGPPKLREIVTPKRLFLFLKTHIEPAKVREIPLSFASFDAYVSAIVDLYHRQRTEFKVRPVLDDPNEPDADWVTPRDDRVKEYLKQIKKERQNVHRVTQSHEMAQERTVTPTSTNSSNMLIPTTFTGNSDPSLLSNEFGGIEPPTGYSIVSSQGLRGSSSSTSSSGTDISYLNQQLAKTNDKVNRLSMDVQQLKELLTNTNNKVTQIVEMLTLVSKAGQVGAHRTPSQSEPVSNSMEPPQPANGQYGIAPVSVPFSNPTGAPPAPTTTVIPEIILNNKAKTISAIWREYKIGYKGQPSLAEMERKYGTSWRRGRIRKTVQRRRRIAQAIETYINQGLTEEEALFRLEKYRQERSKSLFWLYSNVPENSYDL

[2] = molecular target: T2, Loc1p (Pichia pastoris (Komagataella phaffii), cloned from P. pastoris genome, strain SMD1168?) (UniProt C4QX18)
T2 sequence: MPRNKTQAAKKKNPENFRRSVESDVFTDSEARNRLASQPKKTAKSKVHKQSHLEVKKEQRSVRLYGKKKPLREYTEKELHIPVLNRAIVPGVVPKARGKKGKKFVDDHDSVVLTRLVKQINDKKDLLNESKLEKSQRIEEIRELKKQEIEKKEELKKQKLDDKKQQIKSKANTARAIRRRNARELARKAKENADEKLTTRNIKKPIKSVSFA

[3] = molecular target: T3, Gsm1p (Pichia pastoris (Komagataella phaffii), strain SMD1168?) (UniProt C4R1K8)
T3 sequence: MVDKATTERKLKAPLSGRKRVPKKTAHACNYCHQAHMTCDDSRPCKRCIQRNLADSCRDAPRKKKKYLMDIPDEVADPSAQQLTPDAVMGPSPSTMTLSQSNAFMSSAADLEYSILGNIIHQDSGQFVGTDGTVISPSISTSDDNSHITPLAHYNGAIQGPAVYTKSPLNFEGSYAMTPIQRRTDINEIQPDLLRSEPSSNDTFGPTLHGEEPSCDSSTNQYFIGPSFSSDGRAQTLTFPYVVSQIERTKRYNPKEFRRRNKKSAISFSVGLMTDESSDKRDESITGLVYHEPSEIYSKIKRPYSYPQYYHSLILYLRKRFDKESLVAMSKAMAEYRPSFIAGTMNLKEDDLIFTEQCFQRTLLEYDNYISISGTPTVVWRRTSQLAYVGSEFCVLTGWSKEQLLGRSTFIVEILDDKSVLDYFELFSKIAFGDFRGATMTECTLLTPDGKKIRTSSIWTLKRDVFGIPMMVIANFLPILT

Sequence | binding [1] | binding [2] | binding [3]
AGCAGCCCAGGGATGGAAAAGTCCCGGCCGTCGCTGGCAATAATAGCGGGCGGACGCATGTCATGAGATTATTGGAAACCACCAGAATCGAATATAAAAGGCGAACACCTTTCCCAATTTTGGTTTCTCCTGACCCAAAGACTTTAAATTTAATTTATTTGTCCCTATTTCAATCAATTGAACAACTATTTCGAAACG (double strand) [pGAP-CD] | binds | no binding | binds
AGATCTTTTTTGTAGAAATGTCTTGGTGTCCTCGTCCAATCAGGTAGCCATCTCTGAAATATCTGGCTCCGTTGCAACTCCGAACGACCTGCTGGCAACGTAAAATTCTCCGGGGTAAAACTTAAATGTGGAGTAATGGAACCAGAAACGTCTCTTCCCTTCTCTCTCCTTCCACCGCCCGTTACCGTCCCTAGGAAATTTTAC (double strand) [pGAP-AB] | binds | binds | binds
CATGCGTCCGCCCGCTATTATTGCCAGCGACGGCCGGGACTTTTCCATCCCTGGGCTGCTAGGTCGGGTACACGACCTCCGTTTTACCCGCAACGTAATGCTGGGAAGAGCATTGCTGCAAGGGGGCCGTAGAAGAAGCTCTCCAGCAGAGTAAAATTTCCTAGGGACGGTAACGGGCGGTGGAAGGAGAGAGAAGGGAAGAGA (double strand) [pGAP-BC] | binds | binds | binds
